The proteins below were run against rFVIIIBDD-Fc-Fc (B-domain deleted Factor VIII-Fc fused to a second Fc through a (GGGGS)4 linker; expressed from pSYN-FVIII-041).
rFVIIIBDD-Fc-Fc (B-domain deleted Factor VIII-Fc fused to a second Fc through a (GGGGS)4 linker; expressed from pSYN-FVIII-041), sequence (chain, as listed by the source, stated change not applied): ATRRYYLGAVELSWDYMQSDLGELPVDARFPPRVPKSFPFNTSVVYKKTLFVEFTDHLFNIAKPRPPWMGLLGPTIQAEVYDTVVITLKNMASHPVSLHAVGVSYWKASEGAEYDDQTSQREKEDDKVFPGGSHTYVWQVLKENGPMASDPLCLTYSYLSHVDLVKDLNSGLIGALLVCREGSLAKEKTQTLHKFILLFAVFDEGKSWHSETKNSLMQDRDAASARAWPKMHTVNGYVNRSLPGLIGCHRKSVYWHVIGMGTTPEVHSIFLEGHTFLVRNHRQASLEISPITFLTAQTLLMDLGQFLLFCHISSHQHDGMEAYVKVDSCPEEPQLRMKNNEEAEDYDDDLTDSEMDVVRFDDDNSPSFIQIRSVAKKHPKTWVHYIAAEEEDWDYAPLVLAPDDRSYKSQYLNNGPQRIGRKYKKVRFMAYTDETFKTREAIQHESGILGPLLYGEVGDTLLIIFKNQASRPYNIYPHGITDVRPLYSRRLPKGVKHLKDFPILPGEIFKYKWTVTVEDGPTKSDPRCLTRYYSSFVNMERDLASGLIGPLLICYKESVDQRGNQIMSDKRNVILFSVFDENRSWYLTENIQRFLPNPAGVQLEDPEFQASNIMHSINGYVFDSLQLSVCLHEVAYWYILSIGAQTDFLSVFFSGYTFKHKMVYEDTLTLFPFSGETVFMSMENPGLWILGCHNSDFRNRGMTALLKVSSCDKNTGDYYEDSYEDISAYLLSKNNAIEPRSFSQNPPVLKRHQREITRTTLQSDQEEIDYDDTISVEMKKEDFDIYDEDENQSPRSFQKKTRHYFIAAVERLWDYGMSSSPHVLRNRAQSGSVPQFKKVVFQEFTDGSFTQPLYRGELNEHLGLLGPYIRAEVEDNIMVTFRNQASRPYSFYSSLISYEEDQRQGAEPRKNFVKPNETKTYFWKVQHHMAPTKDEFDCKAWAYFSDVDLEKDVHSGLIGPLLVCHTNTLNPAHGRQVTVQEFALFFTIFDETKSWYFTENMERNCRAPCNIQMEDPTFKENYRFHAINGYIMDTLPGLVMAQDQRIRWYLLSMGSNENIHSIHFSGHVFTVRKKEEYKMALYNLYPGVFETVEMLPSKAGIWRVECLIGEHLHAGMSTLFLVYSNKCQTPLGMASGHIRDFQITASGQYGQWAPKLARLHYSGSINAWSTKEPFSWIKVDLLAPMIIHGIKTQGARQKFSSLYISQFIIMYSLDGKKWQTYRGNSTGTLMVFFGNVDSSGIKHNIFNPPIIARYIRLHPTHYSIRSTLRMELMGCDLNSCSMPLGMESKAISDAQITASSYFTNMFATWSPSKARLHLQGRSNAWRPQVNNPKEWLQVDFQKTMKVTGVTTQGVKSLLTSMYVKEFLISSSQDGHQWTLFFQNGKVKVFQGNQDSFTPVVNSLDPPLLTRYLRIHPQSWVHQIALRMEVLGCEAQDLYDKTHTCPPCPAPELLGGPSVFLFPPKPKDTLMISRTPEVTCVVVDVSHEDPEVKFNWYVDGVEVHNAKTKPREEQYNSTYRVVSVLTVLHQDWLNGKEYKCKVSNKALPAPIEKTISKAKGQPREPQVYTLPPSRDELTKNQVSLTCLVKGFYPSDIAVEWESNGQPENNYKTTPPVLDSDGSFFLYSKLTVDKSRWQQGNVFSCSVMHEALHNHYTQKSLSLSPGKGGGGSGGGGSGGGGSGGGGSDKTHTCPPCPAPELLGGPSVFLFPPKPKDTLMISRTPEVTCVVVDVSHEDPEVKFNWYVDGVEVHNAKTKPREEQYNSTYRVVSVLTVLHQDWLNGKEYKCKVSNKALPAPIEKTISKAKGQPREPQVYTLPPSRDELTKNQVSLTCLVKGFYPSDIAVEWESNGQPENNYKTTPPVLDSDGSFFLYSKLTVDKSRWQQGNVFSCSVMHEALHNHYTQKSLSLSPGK

Protein | nonprocessed FVIIIFc on SDS-PAGE (SYPRO Ruby and Coomassie staining)
human PC5 (proprotein convertase subtilisin/kexin type 5), expressed from pSYN-PC5-003 (protein) RVYTNHWAVKIAGGFPEANRIASKYGFINIGQIGALKDYYHFYHSRTIKRSVISSRGTHSFISMEPKVEWIQQQVVKKRTKRDYDFSRAQSTYFNDPKWPSMWYMHCSDNTHPCQSDMNIEGAWKRGYTGKNIVVTILDDGIERTHPDLMQNYDALASCDVNGNDLDPMPRYDASNENKHGTRCAGEVAAAANNSHCTVGIAFNAKIGGVRMLDGDVTDMVEAKSVSFNPQHVHIYSASWGPDDDGKTVDGPAPLTRQAFENGVRMGRRGLGSVFVWASGNGGRSKDHCSCDGYTNSIYTISISSTAESGKKPWYLEECSSTLATTYSSGESYDKKIITTDLRQRCTDNHTGTSASAPMAAGIIALALEANPFLTWRDVQHVIVRTSRAGHLNANDWKTNAAGFKVSHLYGFGLMDAEAMVMEAEKWTTVPRQHVCVESTDRQIKTIRPNSAVRSIYKASGCSDNPNRHVNYLEHVVVRITITHPRRGDLAIYLTSPSGTRSQLLANRLFDHSMEGFKNWEFMTIHCWGERAAGDWVLEVYDTPSQLRNFKTPGKLKEWSLVLYGTSVQPYSPTNEFPKVERFRYSRVEDPTDDYGTEDYAGPCDPECSEVGCDGPGPDHCNDCLHYYYKLKNNTRICVSSCPPGHYHADKKRCRKCAPNCESCFGSHGDQCMSCKYGYFLNEETNSCVTHCPDGSYQDTKKNLCRKCSENCKTCTEFHNCTECRDGLSLQGSRCSVSCEDGRYFNGQDCQPCHRFCATCAGAGADGCINCTEGYFMEDGRCVQSCSISYYFDHSSENGYKSCKKCDISCLTCNGPGFKNCTSCPSGYLLDLGMCQMGAICKDATEESWAEGGFCMLVKKNNLCQRKVLQQLCCKTCTFQG | Kex2, PC7, PACE, and PC5 decrease nonprocessed Factor VIII
soluble form of yeast Kex2 (amino acids 1-675) (protein) LVSSQQIPLKDHTSRQYFAVESNETLSRLEEMHPNWKYEHDVRGLPNHYVFSKELLKLGKRSSLEELQGDNNDHILSVHDLFPRNDLFKRLPVPAPPMDSSLLPVKEAEDKLSINDPLFERQWHLVNPSFPGSDINVLDLWYNNITGAGVVAAIVDDGLDYENEDLKDNFCAEGSWDFNDNTNLPKPRLSDDYHGTRCAGEIAAKKGNNFCGVGVGYNAKISGIRILSGDITTEDEAASLIYGLDVNDIYSCSWGPADDGRHLQGPSDLVKKALVKGVTEGRDSKGAIYVFASGNGGTRGDNCNYDGYTNSIYSITIGAIDHKDLHPPYSEGCSAVMAVTYSSGSGEYIHSSDINGRCSNSHGGTSAAAPLAAGVYTLLLEANPNLTWRDVQYLSILSAVGLEKNADGDWRDSAMGKKYSHRYGFGKIDAHKLIEMSKTWENVNAQTWFYLPTLYVSQSTNSTEETLESVITISEKSLQDANFKRIEHVTVTVDIDTEIRGTTTVDLISPAGIISNLGVVRPRDVSSEGFKDWTFMSVAHWGENGVGDWKIKVKTTENGHRIDFHSWRLKLFGESIDSSKTETFVFGNDKEEVEPAATESTVSQYSASSTSISISATSTSSISIGVETSAIPQTTTASTDPDSDPNTPKKLSSPRQ | Kex2, PC7, PACE, and PC5 decrease nonprocessed Factor VIII
soluble form of human PC7 (amino acids 1-663) (protein) LAGTGGPDGQGTGGPSWAVHLESLEGDGEEETLEQQADALAQAAGLVNAGRIGELQGHYLFVQPAGHRPALEVEAIRQQVEAVLAGHEAVRWHSEQRLLRRAKRSVHFNDPKYPQQWHLNNRRSPGRDINVTGVWERNVTGRGVTVVVVDDGVEHTIQDIAPNYSPEGSYDLNSNDPDPMPHPDVENGNHHGTRCAGEIAAVPNNSFCAVGVAYGSRIAGIRVLDGPLTDSMEAVAFNKHYQINDIYSCSWGPDDDGKTVDGPHQLGKAALQHGVIAGRQGFGSIFVVASGNGGQHNDNCNYDGYANSIYTVTIGAVDEEGRMPFYAEECASMLAVTFSGGDKMLRSIVTTDWDLQKGTGCTEGHTGTSAAAPLAAGMIALMLQVRPCLTWRDVQHIIVFTATRYEDRRAEWVTNEAGFSHSHQHGFGLLNAWRLVNAAKIWTSVPYLASYVSPVLKENKAIPQSPRSLEVLWNVSRMDLEMSGLKTLEHVAVTVSITHPRRGSLELKLFCPSGMMSLIGAPRSMDSDPNGFNDWTFSTVRCWGERARGTYRLVIRDVGDESFQVGILRQWQLTLYGSVWSAVDIRDRQRLLESAMSGKYLHDDFALPCPPGLKIPEEDGYTITPN | Kex2, PC7, PACE, and PC5 decrease nonprocessed Factor VIII

Reference: US20130281671
